Data on two molecules can be found in article PMC8683085, “Serine ADP-ribosylation marks nucleosomes for ALC1-dependent chromatin remodeling” (eLife, 2021).

Numbering of substitutions follows the chain as printed. Names and notes keep the numbering of the source.

This assay addresses PARP1 (Homo sapiens, UniProt P09874). In words: PARP1 ADP-ribose chain elongation on mono-ADP-ribosylated peptide (RP-HPLC), with and without HPF1 titration. The class given is biochemical. As to conditions: 1 μM PARP1, 180 μM H3S10ADPr1 peptide, 2 mM NAD+, 30 °C 25 min, RP-HPLC A280, n = 3. As for the experimental part: To analyze PARP1 and PARP2 ADPr activity on peptide substrates, 2 mM NAD^+ and 1 μM stimulating DNA were combined into the ADPr reaction buffer in the presence of 0.2, 1, or 5 μM PARP1 or PARP2, in a 25 μL reaction (2 μM PARP1/2, 2 μM DNA and 50 μL reaction volume for H2B peptides). All unmodified and mono-ADP-ribosylated substrate peptides were analyzed at a concentration of 180 μM (40 μM for H2B peptides). The reaction was incubated at 30 °C for 25 min, quenched via addition of 95 μL (70 μL in case of H2B peptide reactions) of Solvent A. It was then centrifuged at 20,000 RCF for 5 min and 100 μL of the supernatant was injected into an analytical C18 column for product analysis via RP-HPLC. An elution gradient of 0–35% Solvent B over 20 min was employed to optimize separation of the poly-ADP-ribosylated peptide products. Percent substrate turnover was calculated by integrating the peaks for the starting material and each product on the RP-HPLC A280 trace, normalizing them depending on their number of ADP-ribose moieties, and calculating ratio of total product to total peptide amounts for each reaction. All reactions were performed in triplicate and error bars represent standard deviations. Individual peaks corresponding to products with unique ADP-ribose chain lengths were collected and analyzed by ESI-MS. […]

PARP1, sequence (P09874 whole entry): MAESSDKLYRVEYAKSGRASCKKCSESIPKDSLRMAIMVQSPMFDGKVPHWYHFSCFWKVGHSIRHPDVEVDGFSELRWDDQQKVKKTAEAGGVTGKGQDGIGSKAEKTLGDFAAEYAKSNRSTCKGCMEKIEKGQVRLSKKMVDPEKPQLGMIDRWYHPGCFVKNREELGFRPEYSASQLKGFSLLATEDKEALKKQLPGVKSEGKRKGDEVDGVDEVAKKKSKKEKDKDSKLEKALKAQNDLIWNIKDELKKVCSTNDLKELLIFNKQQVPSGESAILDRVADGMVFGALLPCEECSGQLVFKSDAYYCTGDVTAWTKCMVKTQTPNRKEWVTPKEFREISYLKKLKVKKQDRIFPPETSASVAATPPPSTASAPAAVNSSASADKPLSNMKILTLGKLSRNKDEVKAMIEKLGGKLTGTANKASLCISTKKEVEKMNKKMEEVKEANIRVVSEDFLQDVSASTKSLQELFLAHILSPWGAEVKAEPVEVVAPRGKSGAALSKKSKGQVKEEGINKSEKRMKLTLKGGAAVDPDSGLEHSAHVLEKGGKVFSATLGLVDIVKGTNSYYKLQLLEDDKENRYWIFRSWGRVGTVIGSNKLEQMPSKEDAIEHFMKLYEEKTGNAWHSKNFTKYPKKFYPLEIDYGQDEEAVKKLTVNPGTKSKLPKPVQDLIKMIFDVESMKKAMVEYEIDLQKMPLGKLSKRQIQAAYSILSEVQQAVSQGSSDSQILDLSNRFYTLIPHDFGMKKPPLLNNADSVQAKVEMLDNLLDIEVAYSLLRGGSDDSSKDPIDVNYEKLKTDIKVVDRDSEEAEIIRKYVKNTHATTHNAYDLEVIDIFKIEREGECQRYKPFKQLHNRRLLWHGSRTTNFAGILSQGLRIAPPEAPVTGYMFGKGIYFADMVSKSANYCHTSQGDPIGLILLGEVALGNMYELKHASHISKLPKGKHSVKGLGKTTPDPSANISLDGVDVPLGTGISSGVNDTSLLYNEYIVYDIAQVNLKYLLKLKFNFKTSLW

B1: HPF1: recombinant FLAG-HPF1, amino acids 27–346, PARP1/2-interacting protein (protein)
chain: KFCEADVSSDLRKEVENHYKLSLPEDFYHFWKFCEELDPEKPSDSLSASLGLQLVGPYDILAGKHKTKKKSTGLNFNLHWRFYYDPPEFQTIIIGDNKTQYHMGYFRDSPDEFPVYVGINEAKKNCIIVPNGDNVFAAVKLFLTKKLREITDKKKINLLKNIDEKLTEAARELGYSLEQRTVKMKQRDKKVVTKTFHGAGLVVPVDKNDVGYRELPETDADLKRICKTIVEAASDEERLKAFAPIQEMMTFVQFANDECDYGMGLELGMDLFCYGSHYFHKVAGQLLPLAYNLLKRNLFAEIIEEHLANRSQENIDQLAA
modifications: left off: 6xHis, N-terminal, cleaved | SUMO, N-terminal, cleaved | FLAG, N-terminal, kept
Regarding B1, where the note is “read-out: HPF1 concentration giving 50% inhibition of PARP1-catalyzed ADP-ribose polymerization”, the IC50 was approximately 14 µM.

B2: HPF1 mutant (D283A): binding-deficient HPF1 mutant (protein)
chain: B1 chain with D257A
modifications: left off: 6xHis, N-terminal, cleaved | SUMO, N-terminal, cleaved | FLAG, N-terminal, kept
For B2, the “HPF1 concentration giving 50% inhibition of PARP1-catalyzed ADP-ribose polymerization” value is given as “unable to appreciably inhibit”.
